B1: BD22449: laccase from Cochiobolus heterostrophus, SEQ ID NO: 2, expressed in Aspergillus niger, tested as culture supernatant (protein, listed as Cochliobolus heterostrophus)
chain: MVSSISRVVTALGLLLPTVTSSVVPHKSLAPRTPEVPWKNTGLFSGHSKRQGYETACNHGPESRGCWIDDFNIDTDMDVEWPDTGKTVKYHLTITNTTGAPDGFERPMFLINGQYPGPTITADWGDVLEITVTNGLENNGTGIHWHGLRQLGTNEQDGVNGITECPIAPGDSKLYRFKATQYGTTWYHSHYSVQYGDGIVGPLIIKGPSTANYDIDLGAFPMTDWFHATTFTVNAAAVHANGPPTADNVLVNGSMTSSFGGKYAETILTPGKSHLLRLMNVGINNYLHVGLDGHQFQVISADFTPIEPFYTDSLVLAVGQRYEVIINATEAVGNYWLRVGTGGNCDGPNANAANIRSIFRYAGAPTEDPDTTGSLPSGCYDEDVVPYAKTTVPQEMPEQLSVGFNPNWTSDVTQNQGLVQWLVNGNPMAVDLEVPTLQSVLDGNVTYGNNRHVFAVDEKHQWQYWVIQQNSSNPPLPHPIHLHGHDFYVLAQVENAVWNGDISTLKTDNPIRRDTADLPAGGYLVLAFESDNPGAWLMHCHIPFHVAAGLGVQFLERESEIKAQDGYAEMHRTCANWQSWRYKYHPNGILFPGDSGLRRRN
B2: BD22865: laccase from Fusarium verticillioides, SEQ ID NO: 4, expressed in Aspergillus niger, tested as culture supernatant (protein)
chain: MALIERVWHACVSIVAWLTMWPTSPSTSYQHPLRPNHPHTHIEDPSPGFPIFHPPPGDHEFLCEYPEMTGFVQCSIPENRECWLRHPDGREFNIHTNYENFAPKGIMRHYTLNITESWYNADGQNFTEAKLFNGEYPGPWLEACWGDTFNITVINSMKRNGTSIHWHGIRQNQTMDMDGVNGITQCPIAPGDSFSYIFNTTQYGTSWYHSHYSVQYADGLQGPITIHGPQSAPYDATKRPLLMTDWSHESAFRLLFPGSQFSNKTILLNGAGNVSHYGYTPTLPIPDNYELYFNKTPTDKPTRPKRYLLRLINTSFDSTLVFSIDNHWLQIVTSDFVPIEPYFNTSVLIGIGQRYNVIVEANPLGGDVNEIPDDGNFWIRTWVADACGIAPGGEGYEKTGILRYNHSDKALPSSQPWVNISKACSDETYTSLRPKIPWYIGPAANAQNGERFNVTFDPNAKNTPEFQEEYPVATFGLQRPGQNFRPLQINYSDPVMFHLDEPRDTYPPKWVVIPEDYTEKEWVYFVLTIEGISARTGAHPIHLHGHDFALLQQEENQTYDPSRLNLKLDNPPRRDVVLLPRNGFVVIAFKADNPGIWLMHCHIARHASEGLAMQVLERQGDSNKLFPVGSPNMIEAERVCKVWETWMDGEKDFFEGDSGI
modifications: Fusarium verticillioides

Key:
[1] = mediator ability to delignify pulp
[2] = thermotolerance, residual activity on ABTS; assay type: biochemical; settings: 1 hour
Protocol: Laccases BD22449 and BD22865, identified and characterized in Examples 1-5 above were assayed for thermotolerance. Briefly, each laccases was tested at 50° C., 60° C. and 70° C. for 0-60 minutes wherein the residual activity on ABTS was measured. Supernatants from the Aspergillus cultures expressing BD22449 (SEQ ID NO:2) and BD22865 (SEQ ID NO:4) were isolated as described in Example 2. Supernatants were incubated at 50° C., 60° C. or 70° C. for 1 min, 5 min, 10 min, 30 min, and 60 min. For each time point, the oxidation of 2, 2′-azino-bis(3-ethylbenzthiazoline-6-sulfonic acid) (ABTS) by the laccase was measured using an OXYTHERM™ oxygen measurement instrument.

[3] = pHopt for oxidation of Mediator 71; assay type: biochemical; settings: 1 mM Mediator 71, pH 5-10, room temperature, 20 min
Protocol: Next, the pHopt for the catalysis of the oxidation of Mediator 71 was determined for each laccase. […] of BD22449 or BD22865 culture supernatant isolated as described in Example 2 was incubated with […] Mediator 71 dissolved in Britton-Robinson Buffer to a final concentration of 1 mM at pH 5, 6, 7, 8, 9, or 10. The consumption of oxygen over 20 min at room temperature was determined in an OXYTHERM™ oxygen measurement instrument over time as described above. […] By contrast, the Trametes laccase had no activity on Mediator 71 at pH 7 or above.

[4] = delignification of wood pulp with laccase and mediator, handsheet brightness; settings: with Mediator 71 (50 mg per 1 gram softwood pulp), borate buffer pH 8, 22° C., then NaOH/H2O2 extraction at 75° C.
Protocol: Laccases BD22449 and BD22865, identified and characterized in Examples 1-5 above were assayed for wood pulp delignification with Mediator 71. Briefly, 1 gram of softwood pulp was treated with 3 mL of BD22449 or BD22865 culture supernatant isolated as described in Example 2 with 50 mg of Mediator 71 at 5% consistency in borate buffer pH 8 at 22° C. Laccase/mediator treatment was followed by extraction stage with 2.5% NaOH, 2% H2O2 at 75° C. Handsheets were made out of the treated pulp and brightness increase due to the laccase/mediator treatment was measured using Brightmeter Micro S-5 (Technidyne Corp. New Albany, Ind., USA). Brightness increase obtained with BD22449 and BD22865 with Mediator 71 was −30% (data not shown).

[5] = TEMPO oxidation, oxygen consumption (OXYTHERM); assay type: biochemical; settings: 1 mM TEMPO, pH 8, 22° C., culture supernatant
Protocol: Briefly, 50 μL of test culture supernatants isolated as described in Example 2 was incubated with 950 uL TEMPO (1 mM in Britton-Robinson Buffer at pH 8) at 22° C. in an OXYTHERM™ oxygen measurement instrument (Hansatech, England). Oxygen consumption was measured over time according to the manufacturer's instructions.

[6] = oxidation of Mediator 71 at pH 8, oxygen electrode; assay type: biochemical; settings: for specific activity, oxidation of Mediator 71: 1 mM Mediator 71, pH 8, room temperature, laccase preparation, not purified protein
Protocol: BD22449 (SEQ ID NO:2), BD22865 (SEQ ID NO:4) and Trametes versicolor laccase (used as a control) were assayed for their ability to oxidize Mediator 71 at pH 8 using oxygen electrode. Briefly, 50 μL of BD22449 or BD22865 culture supernatant isolated as described in Example 2 was incubated with 950 μL Mediator 71 dissolved in Britton-Robinson Buffer to a final concentration of 1 mM at pH 8. The consumption of oxygen was measured at room temperature in an OXYTHERM™ oxygen measurement instrument over time as described above.

[7] = HBT oxidation, oxygen consumption; assay type: biochemical; settings: 1 mM HBT, pH 8, 22° C.
Protocol: (§1) The ability of BD22865 (SEQ ID NO: 4) to oxidize mediators with higher redox potentials such as violuric acid and 1-hydroxybenzotriazole (HBT) at pH 8 at room temperature was also tested. Briefly, 50 μL of BD22865 culture supernatant isolated as described in Example 2 was incubated with 950 μL violuric acid (1 mM in Britton-Robinson Buffer at pH 8) or HBT (1 mM in Britton-Robinson Buffer) at pH 8 at 22° C. in an OXYTHERM™ oxygen measurement instrument. Oxygen consumption was measured as described above. SEQ ID NO:4 (BD22865) was able to oxidize both violuric acid and HBT with oxygen consumption rates of 150 nmol/min/mg and 100 nmol/min/mg, respectively under the conditions described herein.

[8] = violuric acid oxidation, oxygen consumption; assay type: biochemical; settings: 1 mM violuric acid, pH 8, 22° C.
Protocol: as §1

Molecule | ability to delignify pulp [1] | efficiency among mediators ([1]; pH 5 and pH 8) | activity remaining after an hour at 60° C. [2] | pH of optimum oxidation of Mediator 71 [3] | brightness increase of handsheets [4] [%] | TEMPO oxidation, oxygen consumption rate [5] | specific activity, oxidation of Mediator 71 [6] [nmol/min/mg] | HBT oxidation, oxygen consumption rate [7] [nmol/min/mg] | violuric acid oxidation, oxygen consumption rate [8] [nmol/min/mg] | specific activity on Mediator 71 compared to BD22449 ([6]; pH 8)
CNC(=O)N(O)c1cccc(C(F)(F)F)c1 [Mediator 71, 3-(3′-Trifluoromethylphenyl)-3-hydroxy-1-methylurea] | capable of delignifying pulp | most efficient |  |  |  |  |  |  |  | 
B1 |  |  | approximately 100% | 8 | −30 | did not show TEMPO oxidation | 677 |  |  | 
B2 |  |  | about 40% | 8 | −30 | 250 nmol/min/mg | 1350 | 100 | 150 | about twice the specific activity
